First the molecules themselves.
B1: 6A5-H2K2-IgG2 (antibody, V domains shown)
VH: QVQLVQSGAEVKKPGSSVKLSCKASGYTFSSYWINWVRQAPGQGLEWIGNIYPSDSYTNYNQKFKDRATLTVDKSTSTAYMELSSLRSEDTAVYYCTRTWEFYYDSVFDYWGQGTLVTVSS
VL: DIQMTQSPSSLSASLGERVTITCKASQDINSYLSWYQQKPGKAPKTLIYRANRLVDGVPSRFSGSGSGQDFTLTISSLQPEDIATYYCLQYDELPPTFGGGTKVEIK
notes: humanized
B2: 6A5-H1K4-IgG2 (antibody, V domains shown)
VH: QVQLVQSGAEVKKPGSSVKLSCKASGYTFSSYWINWVRQAPGQGLEWMGNIYPSDSYTNYNQKFKDRVTLTVDKSTSTAYMELSSLRSEDTAVYYCTRTWEFYYDSVFDYWGQGTLVTVSS
VL: DIQMTQSPSSLSASLGERVTITCKASQDINSYLSWFQQKPGKAPKTLIYRANRLVDGVPSRFSGSGSGQDYTLTISSLQPEDIATYYCLQYDELPPTFGGGTKLEIK
notes: humanized
B3: 6A5-H1K2-IgG2 (antibody, V domains shown)
VH: QVQLVQSGAEVKKPGSSVKLSCKASGYTFSSYWINWVRQAPGQGLEWMGNIYPSDSYTNYNQKFKDRVTLTVDKSTSTAYMELSSLRSEDTAVYYCTRTWEFYYDSVFDYWGQGTLVTVSS
VL: DIQMTQSPSSLSASLGERVTITCKASQDINSYLSWYQQKPGKAPKTLIYRANRLVDGVPSRFSGSGSGQDFTLTISSLQPEDIATYYCLQYDELPPTFGGGTKVEIK
notes: humanized
B4: 6A5-H1K3-IgG2 (antibody, V domains shown)
VH: QVQLVQSGAEVKKPGSSVKLSCKASGYTFSSYWINWVRQAPGQGLEWMGNIYPSDSYTNYNQKFKDRVTLTVDKSTSTAYMELSSLRSEDTAVYYCTRTWEFYYDSVFDYWGQGTLVTVSS
VL: DIQMTQSPSSLSASLGERVTITCKASQDINSYLSWFQQKPGKAPKTLIYRANRLVDGVPSRFSGSGSGQDFTLTISSLQPEDIATYYCLQYDELPPTFGGGTKVEIK
notes: humanized
B5: 6A5-H2K1-IgG2 (antibody, V domains shown)
VH: QVQLVQSGAEVKKPGSSVKLSCKASGYTFSSYWINWVRQAPGQGLEWIGNIYPSDSYTNYNQKFKDRATLTVDKSTSTAYMELSSLRSEDTAVYYCTRTWEFYYDSVFDYWGQGTLVTVSS
VL: DIQMTQSPSSLSASLGERVTITCKASQDINSYLSWYQQKPGKAPKLLIYRANRLVDGVPSRFSGSGSGQDFTLTISSLQPEDIATYYCLQYDELPPTFGGGTKVEIK
notes: humanized
B6: 6A5-H1K1-IgG2 (antibody, V domains shown)
VH: QVQLVQSGAEVKKPGSSVKLSCKASGYTFSSYWINWVRQAPGQGLEWMGNIYPSDSYTNYNQKFKDRVTLTVDKSTSTAYMELSSLRSEDTAVYYCTRTWEFYYDSVFDYWGQGTLVTVSS
VL: DIQMTQSPSSLSASLGERVTITCKASQDINSYLSWYQQKPGKAPKLLIYRANRLVDGVPSRFSGSGSGQDFTLTISSLQPEDIATYYCLQYDELPPTFGGGTKVEIK
notes: humanized
B7: 6A5-H2K3-IgG2 (antibody, V domains shown)
VH: QVQLVQSGAEVKKPGSSVKLSCKASGYTFSSYWINWVRQAPGQGLEWIGNIYPSDSYTNYNQKFKDRATLTVDKSTSTAYMELSSLRSEDTAVYYCTRTWEFYYDSVFDYWGQGTLVTVSS
VL: DIQMTQSPSSLSASLGERVTITCKASQDINSYLSWFQQKPGKAPKTLIYRANRLVDGVPSRFSGSGSGQDFTLTISSLQPEDIATYYCLQYDELPPTFGGGTKVEIK
notes: humanized
B8: 5F9-H2K2-IgG4 (antibody, V domains shown)
VH: QVQLKESGPGLVKPSETLSLTCTVSGFSLTTYDISWVRQPPGKGLEWLGVIWTGGGTNYNSSFMSRVTISKDTSKNQVSLKLSSVTAADTAIYYCERVDYWGQGTTVTVSS
VL: DVVMTQSPLSLPVTLGQPASISCRSSQSLVHSNGNTYLHWFQQRPGQSPKLLIYKVSNRFSGVPDRFSGSGSGTAFTFKISRVEAEDVGVYYCSQNTHVPWTFGGGTKVEIK
notes: humanized
B9: 5F9-H1K4-IgG4 (antibody, V domains shown)
VH: QVQLQESGPGLVKPSETLSLTCTVSGFSLTTYDISWVRQPPGKGLEWIGVIWTGGGTNYNSSFMSRVTISKDTSKNQVSLKLSSVTAADTAVYYCERVDYWGQGTTVTVSS
VL: DVVMTQSPLSLPVTLGDPASISCRSSQSLVHSNGNTYLHWYLQRPGQSPKLLIYKVSNRFSGVPDRFSGSGSGTAFTFKISRVEAEDVGVYYCSQNTHVPWTFGGGTKLEIK
notes: humanized
B10: 5F9-H1K2-IgG4 (antibody, V domains shown)
VH: QVQLQESGPGLVKPSETLSLTCTVSGFSLTTYDISWVRQPPGKGLEWIGVIWTGGGTNYNSSFMSRVTISKDTSKNQVSLKLSSVTAADTAVYYCERVDYWGQGTTVTVSS
VL: DVVMTQSPLSLPVTLGQPASISCRSSQSLVHSNGNTYLHWFQQRPGQSPKLLIYKVSNRFSGVPDRFSGSGSGTAFTFKISRVEAEDVGVYYCSQNTHVPWTFGGGTKVEIK
notes: humanized; also called 30-5F9-H1K2-IgG4
B11: 5F9-H3K1-IgG4 (antibody, V domains shown)
VH: QVQLKESGPGLVKPSETLSITCTVSGFSLTTYDISWVRQPPGKGLEWLGVIWTGGGTNYNSSFMSRVTISKDNSKNQVSLKLSSVTAADTAIYYCERVDYWGQGTTLTVSS
VL: DVVMTQSPLSLPVTLGQPASISCRSSQSLVHSNGNTYLHWFQQRPGQSPRLLIYKVSNRFSGVPDRFSGSGSGTAFTFKISRVEAEDVGVYYCSQNTHVPWTFGGGTKVEIK
notes: humanized
B12: 5F9-H2K4-IgG4 (antibody, V domains shown)
VH: QVQLKESGPGLVKPSETLSLTCTVSGFSLTTYDISWVRQPPGKGLEWLGVIWTGGGTNYNSSFMSRVTISKDTSKNQVSLKLSSVTAADTAIYYCERVDYWGQGTTVTVSS
VL: DVVMTQSPLSLPVTLGDPASISCRSSQSLVHSNGNTYLHWYLQRPGQSPKLLIYKVSNRFSGVPDRFSGSGSGTAFTFKISRVEAEDVGVYYCSQNTHVPWTFGGGTKLEIK
notes: humanized
B13: 5F9-H3K3-IgG4 (antibody, V domains shown)
VH: QVQLKESGPGLVKPSETLSITCTVSGFSLTTYDISWVRQPPGKGLEWLGVIWTGGGTNYNSSFMSRVTISKDNSKNQVSLKLSSVTAADTAIYYCERVDYWGQGTTLTVSS
VL: DVVMTQSPLSLPVTLGQPASISCRSSQSLVHSNGNTYLHWYQQRPGQSPKLLIYKVSNRFSGVPDRFSGSGSGTAFTFKISRVEAEDVGVYYCSQNTHVPWTFGGGTKLEIK
notes: humanized
B14: 5F9-H2K3-IgG4 (antibody, V domains shown)
VH: QVQLKESGPGLVKPSETLSLTCTVSGFSLTTYDISWVRQPPGKGLEWLGVIWTGGGTNYNSSFMSRVTISKDTSKNQVSLKLSSVTAADTAIYYCERVDYWGQGTTVTVSS
VL: DVVMTQSPLSLPVTLGQPASISCRSSQSLVHSNGNTYLHWYQQRPGQSPKLLIYKVSNRFSGVPDRFSGSGSGTAFTFKISRVEAEDVGVYYCSQNTHVPWTFGGGTKLEIK
notes: humanized
B15: 5F9-H3K4-IgG4 (antibody, V domains shown)
VH: QVQLKESGPGLVKPSETLSITCTVSGFSLTTYDISWVRQPPGKGLEWLGVIWTGGGTNYNSSFMSRVTISKDNSKNQVSLKLSSVTAADTAIYYCERVDYWGQGTTLTVSS
VL: DVVMTQSPLSLPVTLGDPASISCRSSQSLVHSNGNTYLHWYLQRPGQSPKLLIYKVSNRFSGVPDRFSGSGSGTAFTFKISRVEAEDVGVYYCSQNTHVPWTFGGGTKLEIK
notes: humanized
B16: 5F9-H1K1-IgG4 (antibody, V domains shown)
VH: QVQLQESGPGLVKPSETLSLTCTVSGFSLTTYDISWVRQPPGKGLEWIGVIWTGGGTNYNSSFMSRVTISKDTSKNQVSLKLSSVTAADTAVYYCERVDYWGQGTTVTVSS
VL: DVVMTQSPLSLPVTLGQPASISCRSSQSLVHSNGNTYLHWFQQRPGQSPRLLIYKVSNRFSGVPDRFSGSGSGTAFTFKISRVEAEDVGVYYCSQNTHVPWTFGGGTKVEIK
notes: humanized
B17: 5F9-H1K3-IgG4 (antibody, V domains shown)
VH: QVQLQESGPGLVKPSETLSLTCTVSGFSLTTYDISWVRQPPGKGLEWIGVIWTGGGTNYNSSFMSRVTISKDTSKNQVSLKLSSVTAADTAVYYCERVDYWGQGTTVTVSS
VL: DVVMTQSPLSLPVTLGQPASISCRSSQSLVHSNGNTYLHWYQQRPGQSPKLLIYKVSNRFSGVPDRFSGSGSGTAFTFKISRVEAEDVGVYYCSQNTHVPWTFGGGTKLEIK
notes: humanized
B18: 5F9-H3K2-IgG4 (antibody, V domains shown)
VH: QVQLKESGPGLVKPSETLSITCTVSGFSLTTYDISWVRQPPGKGLEWLGVIWTGGGTNYNSSFMSRVTISKDNSKNQVSLKLSSVTAADTAIYYCERVDYWGQGTTLTVSS
VL: DVVMTQSPLSLPVTLGQPASISCRSSQSLVHSNGNTYLHWFQQRPGQSPKLLIYKVSNRFSGVPDRFSGSGSGTAFTFKISRVEAEDVGVYYCSQNTHVPWTFGGGTKVEIK
notes: humanized
B19: 5F9-H2K1-IgG4 (antibody, V domains shown)
VH: QVQLKESGPGLVKPSETLSLTCTVSGFSLTTYDISWVRQPPGKGLEWLGVIWTGGGTNYNSSFMSRVTISKDTSKNQVSLKLSSVTAADTAIYYCERVDYWGQGTTVTVSS
VL: DVVMTQSPLSLPVTLGQPASISCRSSQSLVHSNGNTYLHWFQQRPGQSPRLLIYKVSNRFSGVPDRFSGSGSGTAFTFKISRVEAEDVGVYYCSQNTHVPWTFGGGTKVEIK
notes: humanized

This assay addresses T1, Histidine-tagged human 4-1BB protein (h4-1BB-His) (human, UniProt Q07011 24-186).
T1 construct: not shown: histidine tag
Description: SPR (Biacore T200), antibody on Protein A chip, h4-1BB-His injected.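 Note: dissociation phase followed for 300 s, Kd derived as koff divided by kon from the kinetic fit.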
For the molecule B1, binding was characterised by a dissociation constant (Kd) of 0.28 nM, the koff was found to be 0.000652 s⁻¹ and the kon was 2.33e+06 M⁻¹ s⁻¹.
Molecule B2 showed a Kd of 0.321 nM, a koff of 0.000693 s⁻¹ and a kon of 2.16e+06 M⁻¹ s⁻¹.
On to B3, for which the affinity, expressed as Kd, was 0.278 nM; the koff is 0.000662 s⁻¹; the kon turned out to be 2.38e+06 M⁻¹ s⁻¹.
The molecule B4 returned a Kd of 0.214 nM, a koff of 0.000475 s⁻¹ and an on-rate constant (kon) of 2.22e+06 M⁻¹ s⁻¹.
Molecule B5 had a Kd of 2.32 nM, a koff of 0.00155 s⁻¹ and a kon of 668000 M⁻¹ s⁻¹.
The molecule B6 had a Kd of 1.17 nM.
For B7, the Kd is 0.221 nM, the koff worked out at 0.000504 s⁻¹ and the kon worked out at 2.28e+06 M⁻¹ s⁻¹.
The molecule B8 had a Kd of 13.4 nM, a koff of 0.00261 s⁻¹ and a kon of 194000 M⁻¹ s⁻¹.
In the case of B9, the Kd came to 9.95 nM, the koff was found to be 0.00244 s⁻¹ and the kon is 246000 M⁻¹ s⁻¹.
The molecule B10 came in with a Kd of 12 nM, a koff of 0.00247 s⁻¹ and a kon of 205000 M⁻¹ s⁻¹.
The corresponding values for B11 are 12.2 nM, 0.00242 s⁻¹ and 198000 M⁻¹ s⁻¹.
On to B12, for which the dissociation constant Kd was 12.4 nM, the koff was 0.00269 s⁻¹ and the kon worked out at 216000 M⁻¹ s⁻¹.
The molecule B13 registered an equilibrium dissociation constant (Kd) of 10.5 nM, a koff of 0.0022 s⁻¹ and a kon of 210000 M⁻¹ s⁻¹.
The molecule B14 came in with a Kd of 9.81 nM, a koff of 0.00207 s⁻¹ and a kon of 212000 M⁻¹ s⁻¹.
For B15, the affinity, expressed as Kd, was 11.4 nM; the koff turned out to be 0.0027 s⁻¹; the kon was 236000 M⁻¹ s⁻¹.
In turn, B16 yielded a Kd of 11.4 nM, a koff of 0.00253 s⁻¹ and a kon of 222000 M⁻¹ s⁻¹.
Take B17: the Kd turned out to be 10.1 nM, the koff was 0.00208 s⁻¹ and the kon was 206000 M⁻¹ s⁻¹.
In turn, B18 displayed a Kd of 13.7 nM, a koff of 0.00258 s⁻¹ and a kon of 188000 M⁻¹ s⁻¹.
Molecule B19 displayed a Kd of 11.2 nM, a koff of 0.00225 s⁻¹ and a kon of 202000 M⁻¹ s⁻¹.

(Values after US20240092922A1 (EUCURE BEIJING BIOPHARMA, published 2024).)
